Data: publication PMC3303844, “C-Terminal Extension of the Yeast Mitochondrial DNA Polymerase Determines the Balance between Synthesis and Degradation”

Assays:
Conditions in all cases: protein: recombinant; tags: N-terminal 6xHis; label: 32P at 5' end of D25 primer; 25 bp duplex, 5' overhang 20 nt on D45 (recessed primer 3' end)
[1] = target: T1, FL-Mip1 (mitochondrial DNA polymerase gamma) (Saccharomyces cerevisiae, UniProt P15801 30-1254); test: EMSA; no Mg2+ or dNTP in binding mix; EMSA: 1 nM substrate, 0.2-12.5 nM polymerase, 20 mM Tris-HCl pH 8.0, 40 mM KCl, 10% glycerol, 0.1 mg/ml BSA, 2 mM DTT, 2 min at 0°C; native 8% Tris-glycine gel
T1 sequence: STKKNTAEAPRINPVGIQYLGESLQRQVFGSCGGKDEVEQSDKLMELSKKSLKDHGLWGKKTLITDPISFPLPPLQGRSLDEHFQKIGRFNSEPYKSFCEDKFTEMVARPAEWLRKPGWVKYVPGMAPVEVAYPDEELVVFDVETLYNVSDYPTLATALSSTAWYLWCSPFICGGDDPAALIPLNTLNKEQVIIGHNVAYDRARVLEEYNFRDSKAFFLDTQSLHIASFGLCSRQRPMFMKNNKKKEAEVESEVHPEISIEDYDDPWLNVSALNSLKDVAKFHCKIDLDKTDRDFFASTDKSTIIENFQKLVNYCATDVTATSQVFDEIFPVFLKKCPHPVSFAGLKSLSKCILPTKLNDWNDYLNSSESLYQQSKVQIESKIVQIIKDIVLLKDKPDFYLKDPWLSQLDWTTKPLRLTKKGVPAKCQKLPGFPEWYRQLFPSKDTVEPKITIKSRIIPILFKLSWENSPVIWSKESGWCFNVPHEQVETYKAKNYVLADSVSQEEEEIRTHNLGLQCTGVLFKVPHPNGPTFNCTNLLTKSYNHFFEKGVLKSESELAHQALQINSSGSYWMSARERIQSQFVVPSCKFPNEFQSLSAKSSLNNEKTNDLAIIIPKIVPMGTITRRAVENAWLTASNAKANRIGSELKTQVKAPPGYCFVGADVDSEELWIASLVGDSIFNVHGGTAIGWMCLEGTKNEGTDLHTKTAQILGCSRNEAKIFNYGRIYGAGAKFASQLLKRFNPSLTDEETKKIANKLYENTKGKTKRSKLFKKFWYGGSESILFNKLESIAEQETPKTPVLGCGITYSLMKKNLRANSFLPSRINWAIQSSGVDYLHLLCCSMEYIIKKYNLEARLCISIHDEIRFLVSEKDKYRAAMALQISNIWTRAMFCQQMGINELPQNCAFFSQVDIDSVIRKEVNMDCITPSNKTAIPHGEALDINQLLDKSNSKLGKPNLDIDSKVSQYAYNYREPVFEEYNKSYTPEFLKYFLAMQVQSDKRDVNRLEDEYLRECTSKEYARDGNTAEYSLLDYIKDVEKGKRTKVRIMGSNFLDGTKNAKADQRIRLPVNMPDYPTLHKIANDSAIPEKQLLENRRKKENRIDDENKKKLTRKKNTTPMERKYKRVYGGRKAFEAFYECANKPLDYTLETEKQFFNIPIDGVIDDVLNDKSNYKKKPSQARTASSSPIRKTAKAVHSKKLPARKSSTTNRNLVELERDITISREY

Mip1Δ216 = target: T2, Mip1Δ216 (Saccharomyces cerevisiae, UniProt P15801 30-1038, del1039-1254); test: as above
T2 sequence: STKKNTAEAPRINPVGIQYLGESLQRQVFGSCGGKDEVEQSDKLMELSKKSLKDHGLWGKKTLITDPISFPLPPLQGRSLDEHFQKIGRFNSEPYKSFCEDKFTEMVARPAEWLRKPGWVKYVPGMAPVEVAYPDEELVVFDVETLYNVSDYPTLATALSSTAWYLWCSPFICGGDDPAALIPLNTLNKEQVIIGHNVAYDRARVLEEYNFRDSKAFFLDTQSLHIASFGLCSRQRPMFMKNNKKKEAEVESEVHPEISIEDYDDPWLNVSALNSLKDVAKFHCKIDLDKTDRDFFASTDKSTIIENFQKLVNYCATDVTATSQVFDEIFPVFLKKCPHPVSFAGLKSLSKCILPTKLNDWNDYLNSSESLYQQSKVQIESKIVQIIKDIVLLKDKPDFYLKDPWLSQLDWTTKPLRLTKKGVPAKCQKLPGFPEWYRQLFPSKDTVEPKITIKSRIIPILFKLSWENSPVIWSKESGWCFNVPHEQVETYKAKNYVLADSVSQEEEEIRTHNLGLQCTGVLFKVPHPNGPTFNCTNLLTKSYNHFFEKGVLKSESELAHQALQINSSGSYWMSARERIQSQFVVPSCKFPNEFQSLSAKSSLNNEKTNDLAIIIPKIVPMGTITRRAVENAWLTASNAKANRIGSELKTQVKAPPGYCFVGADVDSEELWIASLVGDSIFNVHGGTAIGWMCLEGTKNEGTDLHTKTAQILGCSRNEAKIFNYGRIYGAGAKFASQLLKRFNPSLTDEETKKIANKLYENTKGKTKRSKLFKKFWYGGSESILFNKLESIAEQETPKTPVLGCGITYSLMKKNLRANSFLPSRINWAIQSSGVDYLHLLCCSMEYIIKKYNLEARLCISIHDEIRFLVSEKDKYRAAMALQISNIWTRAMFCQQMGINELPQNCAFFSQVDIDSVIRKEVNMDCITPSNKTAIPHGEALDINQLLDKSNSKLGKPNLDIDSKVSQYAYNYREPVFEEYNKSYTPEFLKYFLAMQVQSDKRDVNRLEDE

Mip1Δ175 = target: T3, Mip1Δ175 (Saccharomyces cerevisiae, UniProt P15801 30-1079, del1080-1254); test: as above
T3 sequence: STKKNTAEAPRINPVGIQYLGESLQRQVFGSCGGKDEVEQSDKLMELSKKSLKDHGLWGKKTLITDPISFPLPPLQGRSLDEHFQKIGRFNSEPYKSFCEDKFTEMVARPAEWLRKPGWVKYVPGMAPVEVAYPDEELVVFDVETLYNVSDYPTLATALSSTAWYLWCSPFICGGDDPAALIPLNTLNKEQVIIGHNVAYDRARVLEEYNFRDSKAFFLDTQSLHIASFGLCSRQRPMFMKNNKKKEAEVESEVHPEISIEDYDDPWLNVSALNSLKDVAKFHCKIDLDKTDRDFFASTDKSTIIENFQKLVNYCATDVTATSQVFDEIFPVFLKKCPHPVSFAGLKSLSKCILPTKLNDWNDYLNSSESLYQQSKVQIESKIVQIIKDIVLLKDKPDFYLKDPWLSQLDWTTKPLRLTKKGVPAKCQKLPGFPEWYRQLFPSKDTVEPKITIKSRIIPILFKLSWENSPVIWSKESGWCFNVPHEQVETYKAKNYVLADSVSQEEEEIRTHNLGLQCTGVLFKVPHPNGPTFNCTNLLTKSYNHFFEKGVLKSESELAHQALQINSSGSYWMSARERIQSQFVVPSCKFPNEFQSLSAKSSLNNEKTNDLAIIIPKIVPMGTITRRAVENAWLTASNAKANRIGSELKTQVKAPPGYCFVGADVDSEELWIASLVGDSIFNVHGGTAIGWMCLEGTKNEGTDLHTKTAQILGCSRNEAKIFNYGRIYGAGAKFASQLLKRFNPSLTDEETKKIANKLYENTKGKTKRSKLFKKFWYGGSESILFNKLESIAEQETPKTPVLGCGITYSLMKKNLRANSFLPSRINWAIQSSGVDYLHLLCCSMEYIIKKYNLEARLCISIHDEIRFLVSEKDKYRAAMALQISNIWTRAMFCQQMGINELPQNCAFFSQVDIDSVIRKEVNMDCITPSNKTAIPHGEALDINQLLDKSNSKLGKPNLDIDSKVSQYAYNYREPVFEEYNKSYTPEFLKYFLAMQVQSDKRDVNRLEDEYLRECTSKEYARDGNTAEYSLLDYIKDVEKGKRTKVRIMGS

Mip1Δ279 = target: T4, Mip1Δ279 (Saccharomyces cerevisiae, UniProt P15801 30-975, del976-1254); test: EMSA; faint shifted band, complex possibly retained in well (aggregation); not quantified; EMSA: 1 nM substrate, 0.2-12.5 nM polymerase, 20 mM Tris-HCl pH 8.0, 40 mM KCl, 10% glycerol, 0.1 mg/ml BSA, 2 mM DTT, 2 min at 0°C; native 8% Tris-glycine gel
T4 sequence: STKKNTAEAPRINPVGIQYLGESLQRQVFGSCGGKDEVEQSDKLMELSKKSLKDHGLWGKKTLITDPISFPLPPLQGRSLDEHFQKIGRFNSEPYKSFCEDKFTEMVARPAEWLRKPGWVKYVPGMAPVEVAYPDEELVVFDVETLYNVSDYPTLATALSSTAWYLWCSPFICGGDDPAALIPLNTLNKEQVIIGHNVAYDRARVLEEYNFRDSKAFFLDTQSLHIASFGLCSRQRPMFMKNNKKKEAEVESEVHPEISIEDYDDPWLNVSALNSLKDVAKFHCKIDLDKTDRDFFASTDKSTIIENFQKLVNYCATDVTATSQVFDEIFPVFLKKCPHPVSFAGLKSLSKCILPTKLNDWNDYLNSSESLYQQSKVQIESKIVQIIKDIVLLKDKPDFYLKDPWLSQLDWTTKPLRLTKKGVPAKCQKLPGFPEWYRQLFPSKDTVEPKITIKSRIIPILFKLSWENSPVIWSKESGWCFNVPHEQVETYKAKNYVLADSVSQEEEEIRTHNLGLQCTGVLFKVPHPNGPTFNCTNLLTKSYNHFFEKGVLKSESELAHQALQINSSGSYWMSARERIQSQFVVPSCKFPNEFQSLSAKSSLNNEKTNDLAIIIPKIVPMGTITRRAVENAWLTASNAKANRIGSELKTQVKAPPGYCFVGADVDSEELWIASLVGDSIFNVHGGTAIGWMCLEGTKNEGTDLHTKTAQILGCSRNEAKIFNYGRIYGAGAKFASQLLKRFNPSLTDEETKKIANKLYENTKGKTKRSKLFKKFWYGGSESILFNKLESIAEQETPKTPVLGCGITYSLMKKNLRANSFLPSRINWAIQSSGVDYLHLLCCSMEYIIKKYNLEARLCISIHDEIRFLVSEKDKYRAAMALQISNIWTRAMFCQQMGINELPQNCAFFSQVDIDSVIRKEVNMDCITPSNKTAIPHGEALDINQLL

B1: 45/25 primer-template (D45/D25) (dsDNA)
DNA 1: GGACGGCATTGGATCGAGGTTGAGTTGGTTGGACGGCTGCGAGGC
DNA 2: GCCTCGCAGCCGTCCAACCAACTCA
- Kd [1]: 4.3 ± 0.68 nM
- Kd (Mip1Δ216): 0.95 ± 0.18 nM
- Kd (Mip1Δ175): 2.2 ± 0.75 nM
- binding result (Mip1Δ279): binds
